Experimental findings from patent US20100167357A1 (CELLECTIS, published 2010) are described below.

One series deals with T1, M3 E8K K96E.
T1 chain: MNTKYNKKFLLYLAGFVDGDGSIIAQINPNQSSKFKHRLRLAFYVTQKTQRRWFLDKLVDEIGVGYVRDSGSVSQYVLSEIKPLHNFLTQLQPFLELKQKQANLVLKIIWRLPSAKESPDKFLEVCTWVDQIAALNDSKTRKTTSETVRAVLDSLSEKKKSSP

The target in series [1] is T2, D137R RAG1.10.3 cutter (M3 D137R).
T2 chain: T1 chain with K8E, E96K, D137R

The target in another series is T3, M3 E8K E61R.
T3 chain: T1 chain with E61R, E96K

The target in a further series is T4, M3 K7E K96E.
T4 chain: T1 chain with K7E, K8E

The target of series [2] is T5, R51D RAG1.10.3 cutter (M3 R51D).
T5 chain: T1 chain with K8E, R51D, E96K

For the next series, the target named is T6, M3 K7E E61R.
T6 chain: T1 chain with K7E, K8E, E61R, E96K

Series [3] concerns the molecule itself. Kind of series: analytical ultracentrifugation of the individually expressed protein (monomer plus higher aggregates seen). Here is the method:
To check the oligomeric status of the purified designed enzymes, their size profiles was measured by analytical ultracentrifugation (FIG. 6). In the case of individually-expressed A1, A2, B3 and B4 proteins, the appearance of the expected monomeric enzyme was observed. However, higher molecular weight aggregates were also detected, including trimers and tetramers (FIG. 6B; only KTG-A2 and QAN-B3 are shown, although similar results were obtained with the other designs). Therefore the designed enzymes were indeed unable to homodimerise, and this may have affected their stability and aggregation properties during purification.

Series [4] concerns the target T7, QAN-B3 (QAN with K7E, F54G, L58M, K96E), His tag removed, co-expressed from pCDFDuet1.
T7 chain: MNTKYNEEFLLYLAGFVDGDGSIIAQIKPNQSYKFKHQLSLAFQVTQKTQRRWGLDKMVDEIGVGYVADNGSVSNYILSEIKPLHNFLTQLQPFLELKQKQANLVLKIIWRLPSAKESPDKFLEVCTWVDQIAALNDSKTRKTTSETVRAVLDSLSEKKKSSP

The target in series [5] is T8, KTG-B3 (KTG with the B3 interface: K7E, F54G, L58M, K96E).
T8 chain: T7 chain with Q44K, A68T, N70G

Substitutions are numbered along the chain they refer to. Names may count otherwise.

B1: M2 K7E E61R (protein)
chain: MNTKYNEEFLLYLAGFVDGDGSIIAQIKPRQSNKFKHQLSLAFAVTQKTQRRWFLDKLVDRIGVGYVYDSGSVSDYRLSEIKPLHNFLTQLQPFLKLKQKQANLVLKIIWRLPSAKESPDKFLEVCTWVDQIAALNDSKTRKTTSETVRAVLDSLSEKKKSSP
Take B1: the “cleavage of the RAG1.10 target, yeast screening assay (OH1)” value with M3 E8K K96E is given as “They have a strong cleavage activity toward the RAG1.10 target equivalent to the M2/M3 heterodimer activity, while they display almost non detectable homodimeric activities”.

B2: R51D RAG1.10.2 cutter (M2 R51D) (protein)
chain: B1 chain with E7K, R51D, R61E
In the case of B2, the “cleavage of the palindromic RAG1.10.2 target, direct repeat recombination (LacZ) assay in yeast” value was “no cleavage of the RAG1.10.2 and RAG1.10.3 targets was visible”. The “cleavage of the RAG1.10 target, direct repeat recombination (LacZ) assay in yeast” value in [1] was “resulted in an efficient cleavage of the RAG1.10 target while no cleavage of the RAG1.10.2 and RAG1.10.3 targets was visible”.

B3: M2 K7E K96E (protein)
chain: B1 chain with R61E, K96E
Regarding B3, the “cleavage of the RAG1.10 target, yeast screening assay (OH3)” value with M3 E8K E61R was “They have a strong cleavage activity toward the RAG1.10 target equivalent to the M2/M3 heterodimer activity, while they display almost non detectable homodimeric activities”.

B4: M2 E8K E61R (protein)
chain: B1 chain with E7K, E8K
Regarding B4, the “cleavage of the RAG1.10 target, yeast screening assay (OH2)” value with M3 K7E K96E is “They have a strong cleavage activity toward the RAG1.10 target equivalent to the M2/M3 heterodimer activity, while they display almost non detectable homodimeric activities”.

B5: D137R RAG1.10.2 cutter (M2 D137R) (protein)
chain: B1 chain with E7K, R61E, D137R
As for B5, in [2], the “cleavage of the RAG1.10 target, direct repeat recombination (LacZ) assay in yeast” value is reported as “leads also to the formation of an obligatory heterodimer, which is yet less active than the precedent one on the RAG1.10 target”.

B6: M2 E8K K96E (protein)
chain: B1 chain with E7K, E8K, R61E, K96E
Consider B6, for which the “cleavage of the RAG1.10 target, yeast screening assay (OH4)” value in the series with M3 K7E E61R is given as “They have a strong cleavage activity toward the RAG1.10 target equivalent to the M2/M3 heterodimer activity, while they display almost non detectable homodimeric activities”.

B7: QAN-B4 (QAN with the B4 interface: B3 mutations K7E, F54G, L58M, K96E plus Glycine at position 97) (enzyme)
chain: MANTKYNEEFLLYLAGFVDGDGSIIAQIKPNQSYKFKHQLSLTFQVTQKTQRRWGLDKMVDEIGVGYVADNGSVSNYILSEIKPLHNFLTQLQPFLEGKQKQANLVLKIIEQLPSAKESPDKFLEVCTWVDQIAALNDSKTRKTTSETVRAVLDSLSEKKKSSPAAALEHHHHHH
notes: Purified by His tag when expressed alone
As for B7, the binding result in [3] is reported as “no binding”.

B8: D137R RAG1.10.3 cutter (M3 D137R) (protein)
chain: T1 chain with K8E, E96K, D137R
As to B8, the “cleavage of the palindromic RAG1.10.3 target, direct repeat recombination (LacZ) assay in yeast” value was “no cleavage of the RAG1.10.2 and RAG1.10.3 targets was visible”.

B9: KTG-A2 (KTG with K7R, E8R, F54W, E61R, K96R, L97F) (enzyme)
chain: T7 chain with E7R, E8R, Q44K, G54W, M58L, E61R, A68T, N70G, E96R, L97F
notes: Designed monomer; Expressed with a His tag from pET-series plasmid pCLS1211
Consider B9, for which the binding result in series [3] is on record as “no binding”. In addition, the “in vitro cleavage of linearized plasmid DNA targets (agarose gel)” value in series [4] is “clear specific cleavage of the heterodimer DNA target (gtt/agg) and barely of the homodimeric targets (cct/agg and gtt/aac; FIG. 7A) was observed”.

B10: QAN-A1 (QAN with the A1 interface: K7R, E8R, E61R, K96R, L97F; Phe kept at position 54) (enzyme)
chain: T7 chain with E7R, E8R, G54F, M58L, E61R, E96R, L97F
notes: as for B7
Turning to B10, the binding result in [3] was “no binding”. Moreover, in [5], the “in vitro cleavage of linearized plasmid DNA targets (agarose gel)” value is reported as “specific cleavage of the heterodimer, but at reduced level compared to the KTG-A2/QAN-B3 combination”.

B11: QAN-B3 (QAN with K7E, F54G, L58M, K96E), individually expressed and purified (enzyme)
chain: T7 chain
notes: Designed monomer; His-tagged form from pET-series plasmid pCLS1214, purified on a nickel column
On to B11, for which the binding result in series [3] is listed as “no binding”.

B12: KTG-B3 (KTG with the B3 interface: K7E, F54G, L58M, K96E) (enzyme)
chain: T7 chain with Q44K, A68T, N70G
notes: as for B7
For B12, the binding result in series [3] is given as “no binding”.
